Source: US20230192860A1 (Bristol-Myers Squibb, published 2023)
Positions count from the first letter of the chain named.

B1: P1-070976 (41F11_VH_T28P_Y50W_S55E_D95H_L96E_P97E_Y100E; Vk_A64G) (antibody, V domains shown)
VH: QVQLVESGGGLVKPGGSLRLSCAASGFPFSDYYMSWIRQAPGKGLEWVSWISNSGEPIYYADSVKGRFTISRDNAKNSLYLQMNSLRAEDTAVYYCARHEEGWEFDLWGRGTLVTVSS
VL: EIVLTQSPATLSLSPGERATLSCRASQSVSSYLAWYQQKPGQAPRLLIYDASNRATGIPARFSGSGSGTDFTLTISSLEPEDFAVYYCQQRNNWPRTFGQGTKVEIK
notes: also called P1-070976-11
B2: P1-068748 (antibody, human IgG1, kappa, V domains shown)
VH: QVQLVESGGGVVQPGRSLRLSCAASGFTFSHHAMHWVRQAPGKGLEWVAIIWYDGSNDDYADSVKGRFTISRDNSKNTLYLQMNSLRAEDTAVYYCARDSGFYDSYYFDYWGQGTLVTVSS
VL: EIVLTQSPATLSLSPGERATLSCRASQSVSSSYLAWYQQKPGQAPRLLIYDASNRATGIPARFSGSGSGTDFTLTISSLEPEDFATYYCQQYNSYPYTFGQGTKLEIKR
notes: IgG1.3; also called P1-068748-6
B3: P1-061029 (antibody, human IgG1, kappa)
heavy: EVQLVESGGGLVQPGKSLRLSCAASGFTLDDYAMHWVRQAPGKGLEWVSGINWNSANIGYADSVKGRFTISRDNAKNSLYLQMNSLRTEDTALYYCAKVPGYSGGWIDAFDVWGQGTMVTVSSASTKGPSVFPLAPSSKSTSGGTAALGCLVKDYFPEPVTVSWNSGALTSGVHTFPAVLQSSGLYSLSSVVTVPSSSLGTQTYICNVNHKPSNTKVDKRVEPKSCDKTHTCPPCPAPEAEGAPSVFLFPPKPKDTLMISRTPEVTCVVVDVSHEDPEVKFNWYVDGVEVHNAKTKPREEQYNSTYRVVSVLTVLHQDWLNGKEYKCKVSNKALPAPIEKTISKAKGQPREPQVYTLPPSREEMTKNQVSLTCLVKGFYPSDIAVEWESNGQPENNYKTTPPVLDSDGSFFLYSKLTVDKSRWQQGNVFSCSVMHEALHNHYTQKSLSLSPG
light: not shown
notes: also called P1-061029-18; P1-061029.IgG1.3
B4: P1-070900 (P1-068761_E56N_H100G) (antibody, human IgG1, kappa, V domains shown)
VH: EVQLVESGGGLVQPGKSLRLSCAASGFTLEDEAMHWVRQAPGKGLEWVSGINWNSENIGYADSVKGRFTISRDNAKNSLYLQMNSLRTEDTALYYCAKVPGYSGGWIDAEDVWGQGTMVTVSS
VL: not shown
notes: also called P1-070900-3
B5: P1-070878 (P1-068761_E55A_E56N) (antibody, human IgG1, kappa, V domains shown)
VH: B4 VH with E56A, G104H
VL: not shown
notes: also called P1-070878-3
B6: P1-070870 (P1-068761_E56N) (antibody, human IgG1, kappa, V domains shown)
VH: B4 VH with G104H
VL: not shown
notes: also called P1-070870-3
B7: P1-068761 (antibody, human IgG1, kappa)
heavy: B3 heavy with D30E, Y32E, A56E, N57E, G104H, F110E
light: not shown
notes: also called P1-068761-20
B8: P1-070868 (P1-068761_E55A) (antibody, human IgG1, kappa, V domains shown)
VH: B4 VH with E56A, N57E, G104H
VL: not shown
notes: also called P1-070868-6
B9: P1-070872 (P1-068761_H100G) (antibody, human IgG1, kappa, V domains shown)
VH: B4 VH with N57E
VL: not shown
notes: also called P1-070872-4
B10: P1-070890 (P1-068761_E30D_E55A) (antibody, human IgG1, kappa, V domains shown)
VH: B4 VH with E30D, E56A, N57E, G104H
VL: not shown
notes: also called P1-070890-3
B11: P1-070904 (P1-068767_E30D) (antibody, human IgG1, kappa, V domains shown)
VH: B4 VH with E30D, E32Y, N52D, V112D
VL: not shown
notes: also called P1-070904-3
B12: P1-070864 (P1-068761_E30D) (antibody, human IgG1, kappa, V domains shown)
VH: B4 VH with E30D, N57E, G104H
VL: not shown
notes: also called P1-070864-3

Molecular target: T1, monovalent hVISTA-ECD (amino acids 32-193 of SEQ ID NO: 1 with a 7xHis tail) (human, UniProt Q9H7M9 33-193)
T1 construct: analyte of the SPR assays; also called huVISTA-His; human VISTA-ECD
T1 sequence (Q9H7M9 other isoform, or with tags, fused parts or gaps limits assumed): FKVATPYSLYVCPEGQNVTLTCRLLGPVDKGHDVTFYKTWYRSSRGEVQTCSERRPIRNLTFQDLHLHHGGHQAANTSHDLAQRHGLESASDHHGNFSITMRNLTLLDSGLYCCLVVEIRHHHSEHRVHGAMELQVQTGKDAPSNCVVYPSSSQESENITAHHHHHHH
Test: SPR, pH 7.4 over pH 6.0
Method: (§1) Further binding kinetic experiments were performed at various pHs on VISTA antibodies described herein by SPR as generally described in Example 9 above. Antibodies were normalized to 50 nM concentration in PBST pH 7.4 and captured on a Protein A CM5 chip (ID 4931) by injecting for 45 seconds at a 5 µL/min flow rate. An 8-point human VISTA titration ([…]) was prepared in PBST at pH 7.4, 6.9, 6.45, and 6.0. Titrations were injected over the captured antibodies for 180 seconds at 30 µL/min. Sensorgrams were fit to a 1:1 binding model in T200 evaluation software and the kinetic constants were reported.
(§2) Each table reports the data at one of the four tested pHs (7.4, 6.9, 6.45, and 6.0, respectively). The 8-point hVISTA titration used in these assays was chosen to provide increased confidence in kinetic values reported at neutral pH conditions. A relatively stringent cutoff for non-binding was applied in this assay. Certain progeny of P1-061029 antibody (P1-068757, ‘759, ‘765, ‘771, and ‘775) show no binding to hVISTA at micromolar concentrations at pH 7.4, while ‘761 and ‘767 show no binding to hVISTA at 100 nM at pH 7.4 but do show binding to hVISTA at micromolar concentrations.

7.4 KD/ 6.0 KD | 7.4 kd/ 6.0 kd | Binder
696 | 7 | B1
212 | 9.9 | B2

Molecular target: T2, hVISTA-ECD 6-His tag (human, UniProt Q9H7M9 33-193)
T2 construct: also called monovalent hVISTA-ECD; human VISTA
T2 sequence (Q9H7M9 other isoform, or with tags, fused parts or gaps limits assumed): as above
Test: SPR, Ab on Protein A, hVISTA analyte, pH 6.9
Method: as §1, §2

Kd [nM] | koff [s⁻¹] | kon [M⁻¹ s⁻¹] | Binder
7.13 | 0.00416 | 583000 | B3
3700 | 0.031 | 8500 | B4
9800 | 0.028 | 2900 | B5
10000 | 0.049 | 4900 | B6
142 | 0.00832 | 58700 | B7
6700 | 0.015 | 2300 | B8
15000 | 0.028 | 1900 | B9
4400 | 0.04 | 9000 | B10
250 | 0.028 | 110000 | B11
8100 | 0.034 | 4200 | B12

Molecular target: T2, hVISTA-ECD 6-His tag
Test: SPR, Ab on Protein A, hVISTA analyte, pH 6.0

Kd [nM] | koff [s⁻¹] | kon [M⁻¹ s⁻¹] | Binder
2.91 | 0.00527 | 1.81e+06 | B3
17 | 0.0084 | 500000 | B4
33 | 0.0063 | 190000 | B5
32 | 0.0063 | 200000 | B6
2.71 | 0.00202 | 745000 | B7
5.4 | 0.0023 | 430000 | B8
8.2 | 0.0056 | 680000 | B9
21 | 0.0081 | 390000 | B10
17 | 0.0038 | 230000 | B11
15 | 0.0068 | 440000 | B12

Molecular target: T2, hVISTA-ECD 6-His tag
Test: SPR, Ab on Protein A, hVISTA analyte, pH 6.45

Kd [nM] | koff [s⁻¹] | kon [M⁻¹ s⁻¹] | Binder
5.13 | 0.0045 | 876000 | B3
130 | 0.06 | 450000 | B4
160 | 0.012 | 78000 | B5
150 | 0.012 | 80000 | B6
16.2 | 0.00309 | 190000 | B7
36 | 0.0087 | 240000 | B8
68 | 0.025 | 360000 | B9
130 | 0.032 | 240000 | B10
68 | 0.0086 | 130000 | B11
110 | 0.046 | 410000 | B12

Molecular target: T1, monovalent hVISTA-ECD (amino acids …)
Test: SPR, Ab on Protein A, hVISTA 100-7.8 nM, pH 7.4
Method: as §1

Kd [nM] | koff [s⁻¹] | kon [M⁻¹ s⁻¹] | Binder
6900 | 0.016 | 2400 | B1
920 | 0.036 | 40000 | B2

Molecular target: T2, hVISTA-ECD 6-His tag
Test: SPR; KD at pH 6.9 over KD at pH 6.0 (head prints 7.4)
Method: as §1, §2

7.4 KD/ 6.0 KD | Binder
2.5 | B3
222 | B4
301 | B5
316 | B6
52.4 | B7
1240 | B8
1820 | B9
211 | B10
14.9 | B11
523 | B12

Molecular target: T2, hVISTA-ECD 6-His tag
Test: SPR; kd at pH 6.9 over kd at pH 6.0 (head prints 7.4)
Method: as §1, §2

7.4 kd/ 6.0 kd | Binder
0.8 | B3
3.7 | B4
4.5 | B5
7.9 | B6
4.1 | B7
6.5 | B8
5.1 | B9
4.9 | B10
7.2 | B11
4.9 | B12

Molecular target: T2, hVISTA-ECD 6-His tag
Test: SPR; KD at pH 6.45 over KD at pH 6.0 (head prints 7.4)

7.4 KD/ 6.0 KD | Binder
1.8 | B3
8 | B4
4.9 | B5
4.6 | B6
6 | B7
6.7 | B8
8.3 | B9
6.3 | B10
4.1 | B11
7.4 | B12

Molecular target: T2, hVISTA-ECD 6-His tag
Test: SPR; kd at pH 6.45 over kd at pH 6.0 (head prints 7.4)
Method: as §1, §2

7.4 kd/ 6.0 kd | Binder
0.9 | B3
7.1 | B4
2 | B5
1.9 | B6
1.5 | B7
3.7 | B8
4.5 | B9
3.9 | B10
2.3 | B11
6.8 | B12

Molecular target: T1, monovalent hVISTA-ECD (amino acids …)
Test: SPR 37C, Ab on Protein A, hVISTA-ECD 50-5 nM, pH 6.0, average
Method: Binding of several preparations of each of the ‘029 progeny clones and of the parent ‘029 antibodies, formatted as IgG1.3 antibodies, to human VISTA at pH 6.0 and 7.4 was measured by Surface plasmon resonance (SPR). SPR analysis was performed to measure koff and KD binding affinity measurements for VISTA Abs at acidic and neutral pHs using a Biacore® T100 instrument (GE Healthcare). […] Antibodies were diluted to 25 nM in PBST pH 7.4, and were captured across active biosensor flow cells at 5 ul/min for 60 seconds. A concentration series of 50 - 5 nM monovalent hVISTA-ECD (SEQ ID NO: 325) was prepared in pH 7.4 and 6.0 running buffers, and was injected over the captured antibodies at 40 ul/min to measure association and dissociation. Two 15 second injections of 10 mM glycine pH 1.5 were used to regenerate the Protein A capture surface between assay cycles. Rate constants ka (kₒₙ) and kd (koff) were derived from reference flow cell and 0 nM blank-subtracted sensorgrams, and were fit to a 1:1 binding model in Biacore® T200 Evaluation Software v.2.0. The affinity constant, KD was calculated as the ratio of rate constants koff/kₒₙ for each VISTA antibody.

Kd [nM] | koff [s⁻¹] | kon [M⁻¹ s⁻¹] | Binder
1 | 0.0015 | 1.4e+06 | B2
